This passage reports KM for plasminogen activation (indirect chromogenic assay with S-2251; plasminogen 24-0 μM, 1 nM muPA, 37°C) and kcat for plasminogen activation (indirect chromogenic assay with S-2251; plasminogen 24-0 μM, 1 nM muPA, 37°C) results from paper PMC5805342.

In the assay the target is Plasminogen (human).

Full-length muPA P78A (enzyme): the KM for plasminogen activation (indirect chromogenic assay with S-2251; plasminogen 24-0 μM, 1 nM muPA, 37°C) amounted to 3.9 µM.

For the substance Full-length muPA E73A (enzyme), the KM for plasminogen activation (indirect chromogenic assay with S-2251; plasminogen 24-0 μM, 1 nM muPA, 37°C) was 24.6 µM.

Regarding Full-length muPA Y149A (enzyme), the KM for plasminogen activation (indirect chromogenic assay with S-2251; plasminogen 24-0 μM, 1 nM muPA, 37°C) came to 12 µM and the kcat for plasminogen activation (indirect chromogenic assay with S-2251; plasminogen 24-0 μM, 1 nM muPA, 37°C) was determined as 0.06 s⁻¹.

As for “Full-length murine urokinase-type plasminogen activator (muPA) (from UniProt P06869 21-433) (enzyme)”, the KM for plasminogen activation (indirect chromogenic assay with S-2251; plasminogen 24-0 μM, 1 nM muPA, 37°C) amounted to 9.8 µM.

On to Full-length muPA N77A (enzyme), for which the KM for plasminogen activation (indirect chromogenic assay with S-2251; plasminogen 24-0 μM, 1 nM muPA, 37°C) came out at 5.1 µM.

Take Full-length muPA Y76A (enzyme): the KM for plasminogen activation (indirect chromogenic assay with S-2251; plasminogen 24-0 μM, 1 nM muPA, 37°C) was 5 µM.

In the case of Full-length muPA K72A (enzyme), the KM for plasminogen activation (indirect chromogenic assay with S-2251; plasminogen 24-0 μM, 1 nM muPA, 37°C) was 3.1 µM.

Full-length muPA S74A (enzyme): the KM for plasminogen activation (indirect chromogenic assay with S-2251; plasminogen 24-0 μM, 1 nM muPA, 37°C) was found to be 22 µM.
